Experimental data: patent publication US20240409645A1 (DUALYX, published 2024)
Positions count from the first letter of the chain named. Blank lines part the entries; values can stand above or below the binder they belong to.

Key:
[1] = target: T1, human common cytokine receptor γ-chain (IL-2Rγ) (human, UniProt P31785 23-262, limits assumed); assay: P.E. binding ELISA
T1 construct: Recombinant human IL-2Rγ protein, coated (ELISA) or amine-coupled to a CM5 chip (SPR); also called hu IL-2R; CD132
T1 sequence: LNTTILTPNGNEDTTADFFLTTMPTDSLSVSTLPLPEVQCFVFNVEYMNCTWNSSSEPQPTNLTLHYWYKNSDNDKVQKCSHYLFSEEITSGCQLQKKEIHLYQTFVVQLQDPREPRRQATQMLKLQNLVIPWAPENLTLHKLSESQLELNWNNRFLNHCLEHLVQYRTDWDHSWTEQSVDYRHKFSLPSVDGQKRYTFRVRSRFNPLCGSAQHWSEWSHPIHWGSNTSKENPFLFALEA
Description: (§1) In a binding ELISA, human or mouse IL-2Rα, IL-2Rβ and IL-2Rγ proteins were coated directly on maxisorp microtiter plates overnight at 4° C. Free binding sites were blocked using 4% Marvel in PBS for 1 hour. Next, 1:5 dilution of P.E. in 1% Marvel/PBS were added to wells and incubated for 1 hour. […] Binding specificity was determined based on O.D. at 450 nm values compared to negative controls.

[2] = target: T2, mouse common cytokine receptor γ-chain (IL-2Rγ) (mouse, UniProt P34902 23-263, limits assumed); assay: P.E. binding ELISA
T2 construct: Recombinant mouse IL-2Rγ protein; also called mo IL-2R; mouse IL-2R gamma
T2 sequence (looked up): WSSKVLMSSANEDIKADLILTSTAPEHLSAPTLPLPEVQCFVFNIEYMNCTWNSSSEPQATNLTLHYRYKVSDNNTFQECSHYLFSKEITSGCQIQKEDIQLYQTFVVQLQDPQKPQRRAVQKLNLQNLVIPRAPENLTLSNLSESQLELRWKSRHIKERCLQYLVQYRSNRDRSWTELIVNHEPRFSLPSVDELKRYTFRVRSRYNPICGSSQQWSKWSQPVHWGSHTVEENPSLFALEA
Description: as §1

[3] = target: T1, human common cytokine receptor γ-chain …; assay: P.E. off-rate SPR
Description: (§2) SPR was performed to determine dissociation rates using Biacore 3000 instrument (GE Healthcare). Briefly, human and mouse IL-2R proteins were immobilized on carboxylmethyl dextran sensor chip (CM5) at approximately 2500 RUs using amine coupling in acetate buffer (GE Healthcare). The VHH-containing P.E. were loaded with a flow rate of 30 uL/min and the off-rates were measured over a 120s period.

[4] = target: T2, mouse common cytokine receptor γ-chain …; assay: P.E. off-rate SPR
Description: as §2

PE binding ELISA OD [1]: 1.32 OD450 nm
PE binding ELISA OD [2]: 0.061 OD450 nm
koff [3]: 0.00232 s⁻¹
koff [4]: 0.0151 s⁻¹
B1: FJ1427_P035MP07B02 (VHH)
VHH: EVQLVESGGGLVQAGGSLRLSCAASGRALSRLAMGWFRQAPGKEREFVVASSWGDDTFYADSVKGRFTFSRDNAKNTVYLQMNSLQPGDTAVYYCAAAPTSFATTAYSSSNSYAYWGQGTQVTVSS
notes: tested as periplasmic extract; also called Clone nr

PE binding ELISA OD [1]: 0.919 OD450 nm
PE binding ELISA OD [2]: 0.045 OD450 nm
koff [3]: 0.00288 s⁻¹
koff [4]: 0.126 s⁻¹
B2: FJ1427_P035MP07D06 (VHH)
VHH: B1 VHH with A28T, L32Y, V49T, S51N, D55G, F58Y, K64Q, G88E
notes: tested as periplasmic extract; also called Clone nr; 620

PE binding ELISA OD [1]: 0.405 OD450 nm
PE binding ELISA OD [2]: 0.045 OD450 nm
koff [3]: 0.00323 s⁻¹
koff [4]: 0.116 s⁻¹
B3: FJ1427_P035MP07F05 (VHH)
VHH: B1 VHH with A28T, L32Y, K43R, V49T, S51N, D55G, F58Y, K64Q, G88E
notes: as for B1

PE binding ELISA OD [1]: 0.425 OD450 nm
PE binding ELISA OD [2]: 0.044 OD450 nm
koff [3]: 0.00326 s⁻¹
koff [4]: 0.144 s⁻¹
B4: FJ1427_P035MP07B08 (VHH)
VHH: B1 VHH with L11S, A14P, A28T, L32Y, V49T, S51N, D55G, F58Y, K64Q, G88E
notes: tested as periplasmic extract; also called Clone nr; 634

PE binding ELISA OD [1]: 0.599 OD450 nm
PE binding ELISA OD [2]: 0.057 OD450 nm
koff [3]: 0.00152 s⁻¹
koff [4]: 0.0127 s⁻¹
B5: FJ1427_P035MP07D02 (VHH)
VHH: B1 VHH with E1Q, V5Q
notes: tested as periplasmic extract; also called Clone nr; 588

PE binding ELISA OD [1]: 0.729 OD450 nm
PE binding ELISA OD [2]: 0.046 OD450 nm
koff [3]: 0.00259 s⁻¹
koff [4]: 0.103 s⁻¹
B6: FJ1427_P035MP07E04 (VHH)
VHH: QVQLVESGGGLVQAGDSLRLSCEASGRTLSRYAMGWFRQAPGKEREFVTANSWGGDTYYADSVQGRFTFSRDNAKNTVYLQMNSLQPEDTAVYYCAAAPTSFATTAYSSSNSYAYWGQGTQVTVSS
notes: tested as periplasmic extract; also called Clone nr; 605

PE binding ELISA OD [1]: 1.19 OD450 nm
PE binding ELISA OD [2]: 0.051 OD450 nm
koff [3]: 0.00294 s⁻¹
koff [4]: 0.113 s⁻¹
B7: FJ1427_P035MP07D01 (VHH)
VHH: B6 VHH with D16G, E23A, T49A, A60T, Q64E, T77A, E88G, A114S
notes: tested as periplasmic extract; also called Clone nr; 580

PE binding ELISA OD [1]: 0.642 OD450 nm
PE binding ELISA OD [2]: 0.049 OD450 nm
koff [3]: 0.00229 s⁻¹
koff [4]: 0.13 s⁻¹
B8: FJ1427_P035MP07E08 (VHH)
VHH: B6 VHH with D16G, E23A, T49A, N51D, A60D, Q64E, N73I, T77A
notes: as for B1

PE binding ELISA OD [1]: 0.83 OD450 nm
PE binding ELISA OD [2]: 0.139 OD450 nm
koff [3]: 0.00156 s⁻¹
koff [4]: 0.0132 s⁻¹
B9: FJ1427_P035MP07E01 (VHH)
VHH: QVQLQESGGGLVQAGGSLRLSCAASGRTLSRYAMGWFRQAPGKEREFVACDSWGGDTFYADSVEGRFTFSRDNAKNATYLQMNSLQPEDTAVYYCAGAPTSFATTAYSSSNSYTVWGQGTQVTVSL
notes: as for B1

PE binding ELISA OD [1]: 0.97 OD450 nm
PE binding ELISA OD [2]: 0.047 OD450 nm
koff [3]: 0.00277 s⁻¹
koff [4]: 0.114 s⁻¹
B10: FJ1427_P035MP07B04 (VHH)
VHH: B6 VHH with Q1E, D16G, E23A
notes: tested as periplasmic extract; also called Clone nr; 602

PE binding ELISA OD [1]: 0.62 OD450 nm
PE binding ELISA OD [2]: 0.061 OD450 nm
koff [3]: 0.00206 s⁻¹
koff [4]: 0.0132 s⁻¹
B11: FJ1427_P035MP07E02 (VHH)
VHH: B1 VHH with E1Q
notes: as for B1

PE binding ELISA OD [1]: 1.55 OD450 nm
PE binding ELISA OD [2]: 0.058 OD450 nm
koff [3]: 0.00278 s⁻¹
koff [4]: 0.0132 s⁻¹
B12: FJ1427_P035MP07B03 (VHH)
VHH: B1 VHH
notes: as for B1

PE binding ELISA OD [1]: 0.865 OD450 nm
PE binding ELISA OD [2]: 0.045 OD450 nm
koff [3]: 0.00447 s⁻¹
koff [4]: 0.126 s⁻¹
B13: FJ1427_P035MP07D09 (VHH)
VHH: B6 VHH with Q1E, D16G, E23A
notes: as for B1

PE binding ELISA OD [1]: 0.319 OD450 nm
PE binding ELISA OD [2]: 0.045 OD450 nm
koff [3]: 0.00279 s⁻¹
koff [4]: 0.111 s⁻¹
B14: FJ1427_P035MP07C06 (VHH)
VHH: B6 VHH with D16G, E23A, K75E
notes: as for B1

PE binding ELISA OD [1]: 0.479 OD450 nm
PE binding ELISA OD [2]: 0.047 OD450 nm
koff [3]: 0.00182 s⁻¹
koff [4]: 0.0128 s⁻¹
B15: FJ1427_P035MP07C05 (VHH)
VHH: B1 VHH with A14P
notes: tested as periplasmic extract; also called Clone nr; 611

PE binding ELISA OD [1]: 0.723 OD450 nm
PE binding ELISA OD [2]: 0.755 OD450 nm
koff [3]: 0.00137 s⁻¹
koff [4]: 0.00703 s⁻¹
B16: FJ1427_P035MP07C09 (VHH)
VHH: B9 VHH with Q5V, F47Y, C50I, A77E, T78V, T114R, V115Y, L126S
notes: tested as periplasmic extract; also called Clone nr; 643

PE binding ELISA OD [1]: 0.4 OD450 nm
PE binding ELISA OD [2]: 0.047 OD450 nm
koff [3]: 0.00296 s⁻¹
koff [4]: 0.115 s⁻¹
B17: FJ1427_P035MP07F04 (VHH)
VHH: B6 VHH with Q1E, D16G, E23A
notes: tested as periplasmic extract; also called Clone nr; 606

PE binding ELISA OD [1]: 0.945 OD450 nm
PE binding ELISA OD [2]: 0.923 OD450 nm
koff [3]: 0.00113 s⁻¹
koff [4]: 0.00694 s⁻¹
B18: FJ1427_P035MP07C01 (VHH)
VHH: QVQLVESGGGLVQAGDSLRLSCVASGRTLSRCAMGWFRKAPGKEREYVAISSWGGDTFYEDSVEGRFTFSRDNAKNTVYLQMNSLRPEDTAVYYCAAAPTSFATTAYSSSNSYAYWGQGTQVTVSS
notes: as for B1

PE binding ELISA OD [1]: 0.982 OD450 nm
PE binding ELISA OD [2]: 0.046 OD450 nm
koff [3]: 0.00353 s⁻¹
koff [4]: 0.114 s⁻¹
B19: FJ1427_P035MP07C03 (VHH)
VHH: B6 VHH with Q1E, D16G, E23A
notes: as for B1

PE binding ELISA OD [1]: 1.25 OD450 nm
PE binding ELISA OD [2]: 0.246 OD450 nm
koff [3]: 0.00214 s⁻¹
koff [4]: 0.0114 s⁻¹
B20: FJ1427_P035MP07B11 (VHH)
VHH: B1 VHH with E1Q, K64E, N76S, S125P
notes: as for B1

PE binding ELISA OD [1]: 0.716 OD450 nm
PE binding ELISA OD [2]: 0.059 OD450 nm
koff [3]: 0.00175 s⁻¹
koff [4]: 0.0501 s⁻¹
B21: FJ1427_P035MP07B10 (VHH)
VHH: B9 VHH with Q5V, C50A, T78A, V92T, T114R, V115Y, L126S
notes: tested as periplasmic extract; also called Clone nr; 650

PE binding ELISA OD [1]: 0.733 OD450 nm
PE binding ELISA OD [2]: 0.054 OD450 nm
koff [3]: 0.00153 s⁻¹
koff [4]: 0.0609 s⁻¹
B22: FJ1427_P035MP07D05 (VHH)
VHH: B9 VHH with Q5V, Y32N, C50A, T78V, T114R, V115Y, L126S
notes: as for B1

PE binding ELISA OD [1]: 0.734 OD450 nm
PE binding ELISA OD [2]: 0.048 OD450 nm
koff [3]: 0.003 s⁻¹
koff [4]: 0.125 s⁻¹
B23: FJ1427_P035MP07D10 (VHH)
VHH: B6 VHH with D16G, E23A, T49A, N51D, A60D, Q64E, N73I, T77A
notes: as for B1

PE binding ELISA OD [1]: 1.03 OD450 nm
PE binding ELISA OD [2]: 0.05 OD450 nm
koff [3]: 0.00263 s⁻¹
koff [4]: 0.0991 s⁻¹
B24: FJ1427_P035MP07D08 (VHH)
VHH: B6 VHH with V2L, D16G, E23A
notes: as for B1

PE binding ELISA OD [1]: 0.902 OD450 nm
PE binding ELISA OD [2]: 0.045 OD450 nm
koff [3]: 0.00322 s⁻¹
koff [4]: 0.112 s⁻¹
B25: FJ1427_P035MP07B06 (VHH)
VHH: B6 VHH with Q1E, D16G, E23A
notes: tested as periplasmic extract; also called Clone nr; 618

PE binding ELISA OD [1]: 0.428 OD450 nm
PE binding ELISA OD [2]: 0.045 OD450 nm
koff [3]: 0.0033 s⁻¹
koff [4]: 0.108 s⁻¹
B26: FJ1427_P035MP07E09 (VHH)
VHH: B6 VHH with V5Q, D16G, E23A
notes: as for B1

PE binding ELISA OD [1]: 0.434 OD450 nm
PE binding ELISA OD [2]: 0.045 OD450 nm
koff [3]: 0.00372 s⁻¹
koff [4]: 0.12 s⁻¹
B27: FJ1427_P035MP07E05 (VHH)
VHH: B6 VHH with Q1E, D16G, E23A
notes: as for B1

PE binding ELISA OD [1]: 1.27 OD450 nm
PE binding ELISA OD [2]: 0.082 OD450 nm
koff [3]: 0.00168 s⁻¹
koff [4]: 0.0127 s⁻¹
B28: FJ1427_P035MP07B09 (VHH)
VHH: B1 VHH with E1Q
notes: as for B1
